# IntAct's records for PubMed 10675337
# B1: GA-binding protein subunit beta-1 (Homo sapiens), Q06547-2 (parent)
# chain: MSLVDLGKKLLEAARAGQDDEVRILMANGAPFTTDWLGTSPLHLAAQYGHYSTTEVLLRAGVSRDARTKVDRTPLHMAASEGHASIVEVLLKHGADVNAKDMLKMTALHWATEHNHQEVVELLIKYGADVHTQSKFCKTAFDISIDNGNEDLAEILQIAMQNQINTNPESPDTVTIHAATPQFIIGPGGVVNLTDETGVSAVQFGNSSTSVLATLAALAEASAPLSNSSETPVVATEEVVTAESVDGAIQQVVSSGGQQVITIVTDGIQLGNLHSIPTSGIGQPIIVTMPDGQQVLTVPATDIAEETVISEEPPAKRQCIEIIENRVESAEIEEREALQKQLDEANREAQKYRQQLLKKEQEAEAYRQKLEAMTRLQTNKEAV
# Variants of: B1
# Details: with hcfc1_human HCFC1, P51610
# hcfc1_human HCFC1, P51610, sequence (P51610 whole entry): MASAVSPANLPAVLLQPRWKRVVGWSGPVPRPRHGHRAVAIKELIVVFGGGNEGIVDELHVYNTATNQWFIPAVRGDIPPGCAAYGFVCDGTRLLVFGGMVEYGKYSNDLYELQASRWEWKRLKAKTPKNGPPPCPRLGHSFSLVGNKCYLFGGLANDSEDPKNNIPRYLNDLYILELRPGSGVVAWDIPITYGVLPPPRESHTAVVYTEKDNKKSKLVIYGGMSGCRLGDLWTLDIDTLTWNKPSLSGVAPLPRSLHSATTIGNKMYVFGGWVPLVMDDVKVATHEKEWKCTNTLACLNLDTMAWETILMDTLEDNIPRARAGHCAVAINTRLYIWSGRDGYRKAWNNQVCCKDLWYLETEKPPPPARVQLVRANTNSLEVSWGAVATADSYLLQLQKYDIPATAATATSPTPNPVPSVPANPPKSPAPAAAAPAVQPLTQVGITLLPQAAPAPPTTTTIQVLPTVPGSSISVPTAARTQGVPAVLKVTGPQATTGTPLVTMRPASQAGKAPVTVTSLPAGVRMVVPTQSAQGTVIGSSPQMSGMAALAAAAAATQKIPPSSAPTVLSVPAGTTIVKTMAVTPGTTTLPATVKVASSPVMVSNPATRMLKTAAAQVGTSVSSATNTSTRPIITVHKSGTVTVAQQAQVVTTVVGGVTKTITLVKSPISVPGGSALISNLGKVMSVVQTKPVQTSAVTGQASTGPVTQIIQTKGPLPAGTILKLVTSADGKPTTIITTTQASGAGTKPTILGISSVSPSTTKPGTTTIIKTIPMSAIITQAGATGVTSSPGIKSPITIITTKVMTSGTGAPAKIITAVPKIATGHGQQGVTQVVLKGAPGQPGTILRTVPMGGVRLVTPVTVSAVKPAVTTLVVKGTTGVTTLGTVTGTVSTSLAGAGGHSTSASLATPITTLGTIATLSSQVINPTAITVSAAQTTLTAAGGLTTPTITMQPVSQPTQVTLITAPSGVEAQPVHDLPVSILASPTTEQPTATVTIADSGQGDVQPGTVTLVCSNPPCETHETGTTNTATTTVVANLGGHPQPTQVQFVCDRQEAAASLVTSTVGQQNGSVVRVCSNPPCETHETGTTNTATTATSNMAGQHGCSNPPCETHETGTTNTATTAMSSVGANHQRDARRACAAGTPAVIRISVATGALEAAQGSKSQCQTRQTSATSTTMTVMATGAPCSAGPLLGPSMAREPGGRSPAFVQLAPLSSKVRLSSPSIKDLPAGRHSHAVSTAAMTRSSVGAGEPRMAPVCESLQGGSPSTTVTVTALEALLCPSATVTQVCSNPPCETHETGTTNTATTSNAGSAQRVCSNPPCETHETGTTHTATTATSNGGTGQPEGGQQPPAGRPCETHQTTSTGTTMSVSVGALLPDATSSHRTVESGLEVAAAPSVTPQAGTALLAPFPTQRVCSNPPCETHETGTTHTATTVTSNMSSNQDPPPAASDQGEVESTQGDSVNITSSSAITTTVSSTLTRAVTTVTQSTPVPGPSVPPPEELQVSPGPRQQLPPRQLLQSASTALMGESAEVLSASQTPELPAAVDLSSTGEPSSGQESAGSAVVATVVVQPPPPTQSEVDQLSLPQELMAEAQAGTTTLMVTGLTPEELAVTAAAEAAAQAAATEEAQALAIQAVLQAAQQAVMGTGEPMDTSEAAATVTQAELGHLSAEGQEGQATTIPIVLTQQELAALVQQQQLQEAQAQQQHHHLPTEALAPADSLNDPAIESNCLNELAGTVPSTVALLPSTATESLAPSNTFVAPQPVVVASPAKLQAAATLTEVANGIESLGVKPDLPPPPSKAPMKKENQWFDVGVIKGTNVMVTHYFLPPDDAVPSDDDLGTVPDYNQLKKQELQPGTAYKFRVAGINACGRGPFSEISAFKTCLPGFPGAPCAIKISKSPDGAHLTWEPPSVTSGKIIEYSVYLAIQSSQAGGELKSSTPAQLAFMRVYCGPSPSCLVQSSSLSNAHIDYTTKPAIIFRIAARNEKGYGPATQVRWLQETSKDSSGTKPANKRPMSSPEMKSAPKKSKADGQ
row,Variant,effect of a mutation on the interaction
1,MSLVDLGKKLLEAARAGQDDEVRILMANGAPFTTDWLGTSPLHLAAQYGHYSTTEVLLRAGVSRDARTKVDRTPLHMAASEGHASIVEVLLKHGADVNAKDMLKMTALHWATEHNHQEVVELLIKYGADVHTQSKFCKTAFDISIDNGNEDLAEILQIAMQNQINTNPESPDTVTIHAATPQFIIGPGGVVNLTDETGVSAVQFGNSSTSVLATLAALAEASAPLSNSSETPVVATEEVVTAESVDGAIQQAASSGGQQVITIVTDGIQLGNLHSIPTSGIGQPIIVTMPDGQQVLTVPATDIAEETVISEEPPAKRQCIEIIENRVESAEIEEREALQKQLDEANREAQKYRQQLLKKEQEAEAYRQKLEAMTRLQTNKEAV [V252A;V253A],decreasing interaction
2,MSLVDLGKKLLEAARAGQDDEVRILMANGAPFTTDWLGTSPLHLAAQYGHYSTTEVLLRAGVSRDARTKVDRTPLHMAASEGHASIVEVLLKHGADVNAKDMLKMTALHWATEHNHQEVVELLIKYGADVHTQSKFCKTAFDISIDNGNEDLAEILQIAMQNQINTNPESPDTVTIHAATPQFIIGPGGVVNLTDETGVSAVQFGNSSTSVLATLAALAEASAPLSNSSETPVVATEEVVTAESVDGAIQQVVSSGGQQVITIVTDGIQLGNLHSIPTSGIGQPIIVTMPDGQQALTAPATDIAEETVISEEPPAKRQCIEIIENRVESAEIEEREALQKQLDEANREAQKYRQQLLKKEQEAEAYRQKLEAMTRLQTNKEAV [V295A;V298A],decreasing interaction
